Data: patent publication US20240277770A1, “SYSTEMS AND METHODS TO IDENTIFY MHC-ASSOCIATED ANTIGENS FOR THERAPEUTIC INTERVENTION” (GENENTECH, INC., priority 2021, published 2024)

Molecular target: recombinant conditional HLA-A*02:01 complex (human)
Test: TR-FRET peptide exchange / HLA complex stability assay
Settings: remark: other sources report otherwise

B1: … (peptide)
peptide: HMTEVVRHC
modifications: here or on the partner: biotinylated (BirA)
**Q.** With B1 as the binder, how does the RZ-score read?
**A.** Its RZ-score is 3.9.
